Laboratory results taken from PMC12102759 (2025).

B1: PAIP1 peptide 124-139 (Polyadenylate-binding protein-interacting protein 1), 16-mer library wild type / PABPC1 PABC (PABPC1 PABC domain, residues 544-623) (parent complex)
chain 1: LMSKLSVNAPEFYPSG
chain 2: PLTASMLASAPPQEQKQMLGERLFPLIQAMHPTLAGKITGMLLEIDNSELLHMLESPESLRSKVDEAVAVLQAHQAKEAA

Variants of: B1
Assay: proteomic peptide phage display deep mutational scan (ProP-PD DMS): M13 P8 16-mer library selected against immobilised GST-tagged bait for four days (rounds), NGS of the eluted pools per day and pseudo-replica; bait immobilised on MaxiSorp plates (10 µg), library pre-cleared on GST, 2 h binding at 4 °C, five washes; one round per day, days 1-4; value from days 2 and 3

Variant | screen value
chain 1 S6N | 0.000518 average fractional NGS count over selection days 2 and 3 (reads of this peptide / all reads for the bait, averaged over …
chain 1 S6W | 0.000475 average fractional NGS count over selection days 2 and 3 (reads of this peptide / all reads for the bait, averaged over …
chain 1 M2A | 0.000739 average fractional NGS count over selection days 2 and 3 (reads of this peptide / all reads for the bait, averaged over …
chain 1 M2V | 0.000531 average fractional NGS count over selection days 2 and 3 (reads of this peptide / all reads for the bait, averaged over …
chain 1 M2P | 0.000581 average fractional NGS count over selection days 2 and 3 (reads of this peptide / all reads for the bait, averaged over …
chain 1 M2L | 0.000374 average fractional NGS count over selection days 2 and 3 (reads of this peptide / all reads for the bait, averaged over …
chain 1 M2N | 0.00156 average fractional NGS count over selection days 2 and 3 (reads of this peptide / all reads for the bait, averaged over …
chain 1 M2E | 0.00221 average fractional NGS count over selection days 2 and 3 (reads of this peptide / all reads for the bait, averaged over …
chain 1 M2W | 0.000144 average fractional NGS count over selection days 2 and 3 (reads of this peptide / all reads for the bait, averaged over …
chain 1 M2G | 0.00279 average fractional NGS count over selection days 2 and 3 (reads of this peptide / all reads for the bait, averaged over …
chain 1 G16E | 0.000703 average fractional NGS count over selection days 2 and 3 (reads of this peptide / all reads for the bait, averaged over …
chain 1 G16Q | 0.00204 average fractional NGS count over selection days 2 and 3 (reads of this peptide / all reads for the bait, averaged over …
chain 1 G16I | 0.00186 average fractional NGS count over selection days 2 and 3 (reads of this peptide / all reads for the bait, averaged over …
chain 1 G16R | 0.000806 average fractional NGS count over selection days 2 and 3 (reads of this peptide / all reads for the bait, averaged over …
chain 1 G16T | 0.000984 average fractional NGS count over selection days 2 and 3 (reads of this peptide / all reads for the bait, averaged over …
chain 1 G16S | 0.0008 average fractional NGS count over selection days 2 and 3 (reads of this peptide / all reads for the bait, averaged over …
chain 1 G16M | 0.00176 average fractional NGS count over selection days 2 and 3 (reads of this peptide / all reads for the bait, averaged over …
chain 1 G16F | 0.00158 average fractional NGS count over selection days 2 and 3 (reads of this peptide / all reads for the bait, averaged over …
chain 1 G16K | 0.000565 average fractional NGS count over selection days 2 and 3 (reads of this peptide / all reads for the bait, averaged over …
chain 1 G16D | 0.000205 average fractional NGS count over selection days 2 and 3 (reads of this peptide / all reads for the bait, averaged over …
chain 1 G16W | 0.000405 average fractional NGS count over selection days 2 and 3 (reads of this peptide / all reads for the bait, averaged over …
chain 1 G16H | 0.00575 average fractional NGS count over selection days 2 and 3 (reads of this peptide / all reads for the bait, averaged over …
chain 1 L5M | 0.0192 average fractional NGS count over selection days 2 and 3 (reads of this peptide / all reads for the bait, averaged over …
chain 1 Y13Q | 0.00152 average fractional NGS count over selection days 2 and 3 (reads of this peptide / all reads for the bait, averaged over …
chain 1 Y13L | 0.00572 average fractional NGS count over selection days 2 and 3 (reads of this peptide / all reads for the bait, averaged over …

Variant | screen value
chain 1 Y13W | 0.00367 average fractional NGS count over selection days 2 and 3 (reads of this peptide / all reads for the bait, averaged over …
chain 1 Y13E | 0.00175 average fractional NGS count over selection days 2 and 3 (reads of this peptide / all reads for the bait, averaged over …
chain 1 Y13R | 0.000336 average fractional NGS count over selection days 2 and 3 (reads of this peptide / all reads for the bait, averaged over …
chain 1 Y13D | 0.00104 average fractional NGS count over selection days 2 and 3 (reads of this peptide / all reads for the bait, averaged over …
chain 1 Y13T | 0.00149 average fractional NGS count over selection days 2 and 3 (reads of this peptide / all reads for the bait, averaged over …
chain 1 Y13I | 0.021 average fractional NGS count over selection days 2 and 3 (reads of this peptide / all reads for the bait, averaged over …
chain 1 Y13V | 0.000146 average fractional NGS count over selection days 2 and 3 (reads of this peptide / all reads for the bait, averaged over …
chain 1 Y13S | 0.000669 average fractional NGS count over selection days 2 and 3 (reads of this peptide / all reads for the bait, averaged over …
chain 1 Y13H | 0.000948 average fractional NGS count over selection days 2 and 3 (reads of this peptide / all reads for the bait, averaged over …
chain 1 Y13K | 0.00389 average fractional NGS count over selection days 2 and 3 (reads of this peptide / all reads for the bait, averaged over …
chain 1 Y13M | 0.000346 average fractional NGS count over selection days 2 and 3 (reads of this peptide / all reads for the bait, averaged over …
chain 1 K4A | 0.00111 average fractional NGS count over selection days 2 and 3 (reads of this peptide / all reads for the bait, averaged over …
chain 1 K4L | 0.0004 average fractional NGS count over selection days 2 and 3 (reads of this peptide / all reads for the bait, averaged over …
chain 1 K4I | 0.000664 average fractional NGS count over selection days 2 and 3 (reads of this peptide / all reads for the bait, averaged over …
chain 1 K4T | 0.00284 average fractional NGS count over selection days 2 and 3 (reads of this peptide / all reads for the bait, averaged over …
chain 1 K4H | 0.00136 average fractional NGS count over selection days 2 and 3 (reads of this peptide / all reads for the bait, averaged over …
chain 1 K4Q | 0.00289 average fractional NGS count over selection days 2 and 3 (reads of this peptide / all reads for the bait, averaged over …
chain 1 K4P | 0.0037 average fractional NGS count over selection days 2 and 3 (reads of this peptide / all reads for the bait, averaged over …
chain 1 K4E | 0.000553 average fractional NGS count over selection days 2 and 3 (reads of this peptide / all reads for the bait, averaged over …
chain 1 K4M | 0.000922 average fractional NGS count over selection days 2 and 3 (reads of this peptide / all reads for the bait, averaged over …
chain 1 K4N | 0.0102 average fractional NGS count over selection days 2 and 3 (reads of this peptide / all reads for the bait, averaged over …
chain 1 K4Y | 0.00101 average fractional NGS count over selection days 2 and 3 (reads of this peptide / all reads for the bait, averaged over …
chain 1 K4G | 0.000301 average fractional NGS count over selection days 2 and 3 (reads of this peptide / all reads for the bait, averaged over …
chain 1 K4R | 0.000924 average fractional NGS count over selection days 2 and 3 (reads of this peptide / all reads for the bait, averaged over …
chain 1 A9S | 0.000704 average fractional NGS count over selection days 2 and 3 (reads of this peptide / all reads for the bait, averaged over …

Variant | screen value
chain 1 P10H | 0.000334 average fractional NGS count over selection days 2 and 3 (reads of this peptide / all reads for the bait, averaged over …
chain 1 P10A | 0.0041 average fractional NGS count over selection days 2 and 3 (reads of this peptide / all reads for the bait, averaged over …
chain 1 P10D | 0.00221 average fractional NGS count over selection days 2 and 3 (reads of this peptide / all reads for the bait, averaged over …
chain 1 P10R | 0.000887 average fractional NGS count over selection days 2 and 3 (reads of this peptide / all reads for the bait, averaged over …
chain 1 P10M | 0.000583 average fractional NGS count over selection days 2 and 3 (reads of this peptide / all reads for the bait, averaged over …
chain 1 P10I | 0.000358 average fractional NGS count over selection days 2 and 3 (reads of this peptide / all reads for the bait, averaged over …
chain 1 P10E | 0.00302 average fractional NGS count over selection days 2 and 3 (reads of this peptide / all reads for the bait, averaged over …
chain 1 P10S | 0.00454 average fractional NGS count over selection days 2 and 3 (reads of this peptide / all reads for the bait, averaged over …
chain 1 P10N | 0.00136 average fractional NGS count over selection days 2 and 3 (reads of this peptide / all reads for the bait, averaged over …
chain 1 P10Y | 0.000572 average fractional NGS count over selection days 2 and 3 (reads of this peptide / all reads for the bait, averaged over …
chain 1 P10L | 0.00239 average fractional NGS count over selection days 2 and 3 (reads of this peptide / all reads for the bait, averaged over …
chain 1 P10Q | 0.000419 average fractional NGS count over selection days 2 and 3 (reads of this peptide / all reads for the bait, averaged over …
chain 1 P10K | 0.000696 average fractional NGS count over selection days 2 and 3 (reads of this peptide / all reads for the bait, averaged over …
chain 1 S3M | 0.000284 average fractional NGS count over selection days 2 and 3 (reads of this peptide / all reads for the bait, averaged over …
chain 1 S3L | 0.000356 average fractional NGS count over selection days 2 and 3 (reads of this peptide / all reads for the bait, averaged over …
chain 1 S3T | 0.00109 average fractional NGS count over selection days 2 and 3 (reads of this peptide / all reads for the bait, averaged over …
chain 1 S3A | 0.00075 average fractional NGS count over selection days 2 and 3 (reads of this peptide / all reads for the bait, averaged over …
chain 1 S3K | 0.000637 average fractional NGS count over selection days 2 and 3 (reads of this peptide / all reads for the bait, averaged over …
chain 1 S3D | 0.000994 average fractional NGS count over selection days 2 and 3 (reads of this peptide / all reads for the bait, averaged over …
chain 1 S3E | 0.000689 average fractional NGS count over selection days 2 and 3 (reads of this peptide / all reads for the bait, averaged over …
chain 1 S3H | 0.000523 average fractional NGS count over selection days 2 and 3 (reads of this peptide / all reads for the bait, averaged over …
chain 1 S3N | 0.000537 average fractional NGS count over selection days 2 and 3 (reads of this peptide / all reads for the bait, averaged over …
chain 1 S3Q | 0.00262 average fractional NGS count over selection days 2 and 3 (reads of this peptide / all reads for the bait, averaged over …
chain 1 S3V | 0.00074 average fractional NGS count over selection days 2 and 3 (reads of this peptide / all reads for the bait, averaged over …
chain 1 F12W | 0.00452 average fractional NGS count over selection days 2 and 3 (reads of this peptide / all reads for the bait, averaged over …
